As usually defined, the Km is the substrate concentration at which the rate is half of its maximum.

This note sets out measurements from paper PMC2815779, “Structure and Kinetic Investigation of Streptococcus pyogenes Family GH38 α-Mannosidase” (PLoS ONE, 2010).

Substrate in data set [1]: OC[C@H]1O[C@H](O[C@H]2[C@H](O)[C@@H](CO)OC(O)[C@H]2O)[C@@H](O)[C@@H](O)[C@@H]1O
The data set can be described thus: purified protein. Conditions: Zn2+. Type of data set: biochemical, Streptococcus pyogenes.

Substrate in data set [2]: Cc1cc(=O)oc2cc(O[C@H]3O[C@H](CO)[C@@H](O)[C@H](O)[C@@H]3O)ccc12
The data set is described as follows: purified protein. Conditions: Zn2+. Type of data set: biochemical, Streptococcus pyogenes.

B1: SpGH38 (Spy1604), family GH38 α-mannosidase (Streptococcus pyogenes serotype M1) (protein)
chain: MATKKVHIISHSHWDREWYMAYEQHHMRLINLIDDLLEVFQTDPDFHSFHLDGQTIILDDYLKVRPEREPEIRQAIASGKLRIGPFYILQDDFLTSSESNVRNMLIGKEDCDRWGASVPLGYFPDTFGNMGQTPQLMLKAGLQAAAFGRGIRPTGFNNQVDTSEKYSSQFSEISWQGPDNSRILGLLFANWYSNGNEIPTTEAEARLFWDKKLADAERFASTKHLLMMNGCDHQPVQLDVTKAIALANQLYPDYEFVHSCFEDYLADLADDLPENLSTVQGEITSQETDGWYTLANTASARIYLKQANTRVSRQLENITEPLAAMAYEVTSTYPHDQLRYAWKTLMQNHPHDSICGCSVDSVHREMMTRFEKAYEVGHYLAKEAAKQIADAIDTRDFPMDSQPFVLFNTSGHSKTSVAELSLTWKKYHFGQRFPKEVYQEAQEYLARLSQSFQIIDTSGQVRPEAEILGTSIAFDYDLPKRSFREPYFAIKVRLRLPITLPAMSWKTLALKLGNETTPSETVSLYDDSNQCLENGFLKVMIQTDGRLTITDKQSGLIYQDLLRFEDCGDIGNEYISRQPNHDQPFYADQGTIKLNIISNTAQVAELEIQQTFAIPISADKLLQAEMEAVIDITERQARRSQEKAELTLTTLIRMEKNNPRLQFTTRFDNQMTNHRLRVLFPTHLKTDHHLADSIFETVKRPNHPDATFWKNPSNPQHQECFVSLFDGENGVTIGNYGLNEYEILPDTNTIAITLLRSVGEMGDWGYFPTPEAQCLGKHSLSYSFESITKQTQFASYWRAQEGQVPVITTQTNQHEGTLAAEYSYLTGTNDQVALTAFKRRLADNALITRSYNLSNDKTCDFSLSLPNYNAKVTNLLEKDSKQSTPSQLGKAEILTLAWKKQ
notes: full length, residues 1-901, N-terminal His6-tag
On to B1, for which the Km is 27 ± 0.75 mM in “purified protein [1]” and 3.6 ± 1.0 mM in “purified protein [2]”.
